Data: patent US20070237759A1

Assays:
[1] = molecular target: PAR-2 expressed on cells, species not stated (Homo sapiens (Human)) (UniProt P55085); assay: cell-based or functional assay
[2] = molecular target: human PAR-2 (proteinase activated receptor-2) (human) (UniProt P55085); assay: cell-based or functional assay

IC50 KNRK, FLIPR Ca2+ mobilization [1]: > 2000 nM
IC50 HCT-116, FLIPR Ca2+ mobilization [2]: > 2000 nM
Substance: SAM11 monoclonal antibody to PAR-2
